The source of these data is patent US20240226230A1.

For this assay, the target named is phenylalanine and glycine rich nucleoporins (FG-Nups). Briefly: cell-based or functional assay.

Turning to “FLAG-KPNB1 H1-8^WT (from UniProt Q14974 1-361)”, the cells in which the accumulation of TDP-43 and Nup62 in cytoplasmic GR aggregates is abolished is 60 % of cells.
